Measurements: paper PMC6962361

Molecular target: Fpr C151Stop (Fowlpox virus) (UniProt A0A385H9X4)
Assay: fluorescence polarization
Settings: FP: 25 mM Tris-HCl pH 7.4, 100 mM NaCl, 5 mM EDTA, 1% glycerol, 10 nM DNA, 37 C 20 min, protein as dimer; NMR: 25 mM L-Arg, 25 mM L-Glu, 303 K

Sequence: CGGAGGCCTAGCGTCCGGAATTCTCGTTTCGAGAATTCCGGATTAGGGATCCGCG / CGCGGATCCCTAAGCTCCATCGATCGTTTCGATCGATGGAGCCGCTAGGCCTCCG [F13/13HJ (FHJ13/13)]
- Kd: 168 nM
